Assay [1] concerns the target T1, full-length murine LRRC8A (homomeric hexameric channel) (mouse), Q80WG5.
T1 chain: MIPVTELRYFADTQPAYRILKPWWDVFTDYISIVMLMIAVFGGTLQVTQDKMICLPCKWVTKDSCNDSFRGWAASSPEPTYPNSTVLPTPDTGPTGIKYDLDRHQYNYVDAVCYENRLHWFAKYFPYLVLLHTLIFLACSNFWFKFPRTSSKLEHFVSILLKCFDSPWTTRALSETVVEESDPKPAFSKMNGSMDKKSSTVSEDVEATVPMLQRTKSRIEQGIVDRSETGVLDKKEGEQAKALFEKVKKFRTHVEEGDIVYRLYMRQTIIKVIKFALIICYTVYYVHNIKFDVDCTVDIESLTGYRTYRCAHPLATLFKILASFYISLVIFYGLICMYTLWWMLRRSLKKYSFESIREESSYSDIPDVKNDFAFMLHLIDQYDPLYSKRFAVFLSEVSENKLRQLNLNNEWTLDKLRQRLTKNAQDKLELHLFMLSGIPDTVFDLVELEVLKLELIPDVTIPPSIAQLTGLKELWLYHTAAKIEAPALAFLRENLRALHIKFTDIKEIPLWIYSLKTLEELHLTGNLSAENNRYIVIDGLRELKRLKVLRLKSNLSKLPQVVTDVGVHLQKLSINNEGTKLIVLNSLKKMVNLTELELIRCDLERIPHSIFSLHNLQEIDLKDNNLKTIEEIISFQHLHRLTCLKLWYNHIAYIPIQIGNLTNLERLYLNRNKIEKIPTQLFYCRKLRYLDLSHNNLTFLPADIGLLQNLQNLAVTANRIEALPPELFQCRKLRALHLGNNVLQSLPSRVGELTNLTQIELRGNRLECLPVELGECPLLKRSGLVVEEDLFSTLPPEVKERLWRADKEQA
Kind of assay: cryo-EM structure; sybody added to purified full-length LRRC8A at a molar ratio sybody/LRRC8A monomer of 1.25-1.5 (0.5 for Sb4_(0.5)), no further chromatography; C3 symmetry imposed. As to conditions: remark: other sources report otherwise.

The target of assay [2] is T2, full-length murine LRRC8A (homomeric hexameric channel) (mouse, UniProt Q80WG5). Kind of assay: cell-based or functional assay.
Assay [3] deals with T3, LRR domain of LRRC8A (soluble cytoplasmic leucine-rich repeat domain of mouse LRRC8A) (Mus musculus, UniProt Q80WG5, chemically biotinylated with amine-reactive NHS-PEG4-Biotin for ELISA and SPR).
T3 construct: LRR domain of mouse LRRC8A, residues 398-810 of NP_808393.1; Used without biotin in SEC and biotinylated in SPR and ELISA; also called LRRC8A-cytosolic domain (LRR); LRRC8A-LRR domain; not shown: SBP, N-terminal, cleaved; myc, N-terminal, cleaved
Description: SPR; Biacore T100; chemically biotinylated LRR domain immobilised on streptavidin chip (~100 RU), sybody as analyte; 20 °C, 10 mM HEPES pH 7.4, 150 mM NaCl, 0.5 mM EDTA, 0.05% Tween 20; multi-cycle kinetics (Sb1, Sb3, Sb4, Sb5) or single-cycle kinetics (Sb2); 1:1 binding model. As to conditions: both partners purified. For orientation: In SPR one partner is held on a chip, and binding of the other changes the refractive index at the surface.

Assay [4] deals with T2, full-length murine LRRC8A (homomeric …). Description: cryo-EM structure; sybody added to purified full-length LRRC8A at a molar ratio sybody/LRRC8A monomer of 1.25-1.5 (0.5 for Sb4_(0.5)), no further chromatography; C3 symmetry imposed. As to conditions: both partners purified.

Several values for one entry are separate records, joined by “and”; a condition that tells them apart may be missing. Identical values can stand only once.

B1: full-length murine LRRC8A (homomeric hexameric channel), Q80WG5 1-810 (natural protein)
chain: T1 chain
As for B1, in assay [1], the stoichiometry N was 6 subunits.

B2: sybody Sb5^LRRC8A (VHH)
VHH: QVQLVESGGGLVQAGGSLRLSCAASGFPVAQEIMTWYRQAPGKEREWVAAISSIGDTTAYADSVKGRFTISRDNAKNTVYLQMNSLKPEDTAVYYCAVNVGFTYKGQGTQVTVSA
notes: concave library; Synthetic nanobody selected by ribosome and phage display against full-length LRRC8A; For electrophysiology expressed in HEK293 cells with C-terminal Venus-myc-SBP; source: E. coli MC1061, periplasmic expression, purified (Ni-NTA, SEC on Superdex 75)
On to B2, for which the “endogenous VRAC current density in HEK293 cells expressing Sb5 compared to non-transfected cells, whole-cell patch clamp, 125 mM (about 50% increase) and 175 mM intracellular salt” value in assay [2] was around 2.3 fold increase. Moreover, in assay [3], the Kd was 175 nM and 170 nM; the off-rate (koff) is 0.199 s⁻¹ and 0.242 s⁻¹.

B3: sybody Sb3^LRRC8A (VHH)
VHH: QVQLVESGGGLVQAGGSLRLSCAASGFPVMNAGMYWYRQAPGKEREWVAAIESEGTSTYYADSVKGRFTISRDNAKNTVYLQMNSLKPEDTAVYYCNVKDVGDNHFPYDYWGQGTQVTVSA
notes: residues 1-120 modelled; loop library; Synthetic nanobody selected by ribosome and phage display against full-length LRRC8A; For electrophysiology expressed in HEK293 cells with C-terminal Venus-myc-SBP; source: E. coli MC1061, periplasmic expression, purified (Ni-NTA, SEC on Superdex 75)
As for B3, in assay [4], the “stoichiometry N” value is 6 sybodies per hexameric channel. Also, in assay [3], the Kd was 800 nM and 913 nM; the off-rate (koff) is 0.104 s⁻¹ and 0.113 s⁻¹.

B4: sybody Sb4^LRRC8A (VHH)
VHH: QVQLVESGGGSVQAGGSLRLSCAASGYIYQIEYLGWFRQAPGKEREGVAALATWNGQTYYADSVKGRFTVSLDNAKNTVYLQMNSLKPEDTALYYCAAAYEGDTSPLYYEEYGYWGQGTQVTVSA
notes: convex library; Synthetic nanobody selected by ribosome and phage display against full-length LRRC8A; For electrophysiology expressed in HEK293 cells with C-terminal Venus-myc-SBP; source: E. coli MC1061, periplasmic expression, purified (Ni-NTA, SEC on Superdex 75)
For B4, the “endogenous VRAC current density in HEK293 cells expressing Sb4 compared to non-transfected cells, whole-cell patch clamp, 125 mM (about 50% increase) and 175 mM intracellular salt” value in assay [2] is around 5 fold increase. Further, in assay [3], the Kd was 27 nM and 17 nM; the koff is 0.064 s⁻¹.

B5: sybody Sb1^LRRC8A (VHH)
VHH: QVQLVESGGGLVQAGGSLRLSCAASGFPVGRHFMYWYRQAPGKEREWVAAIYSYGEYTEYADSVKGRFTISRDNAKNTVYLQMNSLKPEDTAVYYCYVYVGNEYWGQGTQVTVSA
notes: residues 1-116 modelled; concave library; Synthetic nanobody selected by ribosome and phage display against full-length LRRC8A; N-terminal pelB leader for periplasmic expression; For electrophysiology also expressed in HEK293 cells with C-terminal Venus-myc-SBP; source: E. coli MC1061, periplasmic expression, purified (Ni-NTA, SEC on Superdex 75)
On to B5, for which the “current density of endogenous VRAC in HEK293 cells, whole-cell patch clamp, 125 mM intracellular salt, 1 µM Sb1 in the pipette solution” value in assay [2] was around 4 fold reduction. In addition, in assay [4], the “stoichiometry N” value is 6 sybodies per hexameric channel. In assay [3], the equilibrium dissociation constant (Kd) was 24 nM and 22 nM; the koff was 0.03 s⁻¹ and 0.037 s⁻¹.

B6: sybody Sb2^LRRC8A (VHH)
VHH: QVQLVESGGGLVQAGGSLRLSCAASGFPVYQAWMWWYRQAPGKEREWVAAIESEGQYTWYADSVKGRFTISRDNAKNTVYLQMNSLKPEDTAVYYCNVKDTGHTTNQYDYWGQGTQVTVSA
notes: loop library; Synthetic nanobody selected by ribosome and phage display against full-length LRRC8A; For electrophysiology expressed in HEK293 cells with C-terminal Venus-myc-SBP; source: E. coli MC1061, periplasmic expression, purified (Ni-NTA, SEC on Superdex 75)
B6: in assay [4], the “stoichiometry N” value was 6 sybodies per hexameric channel. In assay [3], the Kd is 35 nM and 60 nM; the dissociation rate constant (koff) stood at 0.003 s⁻¹.

The stoichiometry N is a count of units in the complex or per binding partner. As a reminder, the Kd is the constant that tells how readily two partners part at equilibrium. High values mean a looser complex, low ones a tighter complex. Broadly, the koff is the first-order rate constant of dissociation. The low end stands for a long-lived complex, the high end for a short-lived complex.
